From publication PMC10902354, “Deficiency in PHD2-mediated hydroxylation of HIF2α underlies Pacak-Zhuang syndrome” (Communications Biology, 2024)

Biological target: T1, Alexa 647 labeled PHD2 (catalytic / prolyl-hydroxylase domain, residues 181-426) (human, UniProt Q9GZT9 181-426, Alexa Fluor 647 N-hydroxysuccinimide ester dye, 1-2 dye molecules per protein molecule)
T1 construct: PHD2, prolyl-hydroxylase domain (catalytic domain), residues 181-426, from pET-46-HIS6-PHD2; Same construct as m2, dye-labeled for MST; also called PHD2-647; source: E. coli BL21(DE3), purified (Ni-NTA, thrombin cleavage, Superdex 75), labeled with Alexa Fluor 647 NHS ester
Experiment: MST; 25 nM Alexa 647 labeled PHD2, unlabeled peptide in 16 two-fold dilutions; room temperature; MST Buffer 50 mM Tris-HCl pH 7.5, 1 mM NOG, 10 µM FeSO4, 5 mg/ml BSA mixed 1:1 with peptide in 50 mM Tris-HCl pH 8.0; 1:1 Kd model; triplicate
Conditions: both partners purified

T1 sequence (Q9GZT9 181-426): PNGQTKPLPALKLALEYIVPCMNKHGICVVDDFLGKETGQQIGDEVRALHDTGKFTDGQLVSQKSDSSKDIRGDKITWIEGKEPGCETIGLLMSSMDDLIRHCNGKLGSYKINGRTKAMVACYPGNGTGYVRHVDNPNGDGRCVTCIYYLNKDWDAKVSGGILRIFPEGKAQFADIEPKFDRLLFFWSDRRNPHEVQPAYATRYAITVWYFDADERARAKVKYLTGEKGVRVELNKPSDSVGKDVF

Row | Binder | Kd
1 | Ac-ELDLETLAPYIRMDGEDFQL-NH2 (peptide, UniProt Q99814 523-542, looked up, HIF2α (EPAS1) CODD peptide, human, as m3 with the disease mutation P534R (Class 2); also called HIF2α P534R; source: synthetic peptide (Genscript, ≥95% purity)) [HIF2α-CODD P534R peptide] | 153 ± 10 µM
2 | Ac-ELDLETLAPYIPMDGEDLQL-NH2 (peptide, UniProt Q99814 523-542, looked up, HIF2α (EPAS1) CODD peptide, human, as m3 with the disease mutation F540L (Class 2); also called HIF2α F540L; source: synthetic peptide (Genscript, ≥95% purity)) [HIF2α-CODD F540L peptide] | 229 ± 25 µM
3 | Ac-ELDLETLAPYIPTDGEDFQL-NH2 (peptide, UniProt Q99814 523-542, looked up, HIF2α (EPAS1) CODD peptide, human, as m3 with the disease mutation M535T (Class 2); also called HIF2α M535T; source: synthetic peptide (Genscript, ≥95% purity)) [HIF2α-CODD M535T peptide] | 203 ± 25 µM
4 | Ac-ELDLETLAPYIPMDWEDFQL-NH2 (peptide, UniProt Q99814 523-542, looked up, HIF2α (EPAS1) CODD peptide, human, as m3 with the disease mutation G537W (Class 2); also called HIF2α G537W; source: synthetic peptide (Genscript, ≥95% purity)) [HIF2α-CODD G537W peptide] | 83 ± 9 µM
5 | Ac-ELDLETLAPYVPMDGEDFQL-NH2 (peptide, UniProt Q99814 523-542, looked up, HIF2α (EPAS1) CODD peptide, human, as m3 with the disease mutation I533V (Class 2); also called HIF2α I533V; source: synthetic peptide (Genscript, ≥95% purity)) [HIF2α-CODD I533V peptide] | 167 ± 29 µM
6 | Ac-ELDLETLAPYIPIDGEDFQL-NH2 (peptide, UniProt Q99814 523-542, looked up, HIF2α (EPAS1) CODD peptide, human, as m3 with the disease mutation M535I (Class 2); also called HIF2α M535I; source: synthetic peptide (Genscript, ≥95% purity)) [HIF2α-CODD M535I peptide] | 154 ± 17 µM
7 | Ac-ELDLETLAPYIPMDREDFQL-NH2 (peptide, UniProt Q99814 523-542, looked up, HIF2α (EPAS1) CODD peptide, human, as m3 with the disease mutation G537R (Class 2); also called HIF2α G537R; source: synthetic peptide (Genscript, ≥95% purity)) [HIF2α-CODD G537R peptide] | 175 ± 20 µM
8 | Ac-ELDLETLAPYIPMDGEYFQL-NH2 (peptide, UniProt Q99814 523-542, looked up, HIF2α (EPAS1) CODD peptide, human, as m3 with the disease mutation D539Y (Class 1); also called HIF2α D539Y; source: synthetic peptide (Genscript, ≥95% purity)) [HIF2α-CODD D539Y peptide] | 381 ± 50 µM

The next lines start with the values.

Row | Kd | Binder
9 | 345 ± 247 µM | Ac-ELDLETLAPCIPMDGEDFQL-NH2 (peptide, UniProt Q99814 523-542, looked up, HIF2α (EPAS1) CODD peptide, human, as m3 with the disease mutation Y532C; also called HIF2α Y532C; source: synthetic peptide (Genscript, ≥95% purity)) [HIF2α-CODD Y532C peptide]
10 | 41 ± 5 µM | Ac-ELDLETLAPHIPMDGEDFQL-NH2 (peptide, UniProt Q99814 523-542, looked up, HIF2α (EPAS1) CODD peptide, human, as m3 with the disease mutation Y532H (Class 2); also called HIF2α Y532H; source: synthetic peptide (Genscript, ≥95% purity)) [HIF2α-CODD Y532H peptide]
11 | 23 ± 2 µM | Ac-ELDLEMLAPYIPMDGEDFQL-NH2 (peptide, UniProt Q99814 523-542, looked up, HIF2α (EPAS1) CODD peptide, human, as m3 with T528M; also called HIF2α T528M; source: synthetic peptide (Genscript, ≥95% purity)) [HIF2α-CODD T528M peptide]
12 | 13 ± 2 µM | Ac-ELDLETLAPYIPMDEDFQL-NH2 (peptide, UniProt Q99814 523-542, looked up, HIF2α (EPAS1) CODD peptide, human, as m3 without G537; also called HIF2α ΔG537; source: synthetic peptide (Genscript, ≥95% purity)) [HIF2α-CODD ΔG537 peptide]
